The target in assay [1] is T1, SARS-CoV-2 nucleocapsid (N) protein, full-length, N-terminally 6xHis-tagged (SARS-CoV-2, UniProt P0DTC9 1-419).
T1 construct: SARS-CoV-2 nucleocapsid (N) protein, full-length, residues 1 to 419 (419 amino acids); also called 6XHis-N protein; FL N protein; not shown: His6, N-terminal, kept
Briefly: pull-down. Conditions: both partners purified.

Assay [2] deals with T1, SARS-CoV-2 nucleocapsid (N) protein, …. Briefly: MST; RED-NHS-labelled hnRNPA1 (5 nM) titrated with N protein, NTD, CTD or LKR+CTD; 16 two-fold dilutions from 100 μM; Monolith NT.115; single-site binding model; triplicates. Conditions: both partners purified.

B1: N-terminally GST-tagged human hnRNPA1 (natural protein, UniProt P09651-2 1-320, looked up)
chain: MSKSESPKEPEQLRKLFIGGLSFETTDESLRSHFEQWGTLTDCVVMRDPNTKRSRGFGFVTYATVEEVDAAMNARPHKVDGRVVEPKRAVSREDSQRPGAHLTVKKIFVGGIKEDTEEHHLRDYFEQYGKIEVIEIMTDRGSGKKRGFAFVTFDDHDSVDKIVIQKYHTVNGHNCEVRKALSKQEMASASSSQRGRSGSGNFGGGRGGGFGGNDNFGRGGNFSGRGGFGGSRGGGGYGGSGDGYNGFGNDGSNFGGGGSYNDFGNYNNQSSNFGPMKGGNFGGRSSGPYGGGGQYFAKPRNQGGYGGSSSSSSYGSGRRF
notes: human hnRNPA1; Prey of the Ni-NTA pull-down; The general purification method names only Ni-NTA and SEC; also called GST-hnRNPA1; source: E. coli, purified; not shown: GST, N-terminal, kept
Regarding B1, in assay [1], the binding result was “binds”.

B2: human hnRNPA1, full-length (residues 1 to 320), fluorescently labelled (natural protein, UniProt P09651-2 1-320, looked up)
chain: B1 chain
modifications: RED-NHS 2nd generation dye
notes: human hnRNPA1, full-length, residues 1 to 320 (320-residue form); Labelled protein of the MST titrations (5 nM); also called full length hnRNPA1; source: E. coli Rosetta (DE3), purified (Ni-NTA, SEC)
What is called Kd is the concentration at which binding is half-saturated. The low end stands for tighter binding, the high end for weaker binding. For B2, the Kd in assay [2] was approximately 180 nM.

The record behind these values is publication doi:10.1101/2025.11.28.691101, “Interaction and co-phase separation of SARS-CoV-2 nucleocapsid protein and human hnRNPA1 and its implications for viral life cycle” (bioRxiv, 2025).
